The values that follow come from article PMC5591402, “Facile Affinity Maturation of Antibody Variable Domains Using Natural Diversity Mutagenesis” (Frontiers in Immunology, 2017).

Where a chain is given by its changes, count along the chain named. Where no end group is shown, it is not given here.

The target of assay [1] is T1, TAMRA-labeled α-synuclein peptide (Homo sapiens, also: TAMRA fluorophore, position not given here).
T1 construct: the TAMRA peptide is called the α-synuclein peptide; also called C-terminal α-synuclein peptide; antigen; source: synthetic peptide, bought: Genemed Synthesis Inc
T1 chain: GYQDYEPEA
Put plainly: fluorescence polarisation; VHH titrated (0.8 nM-1.6 µM) against 2 nM TAMRA-labeled α-synuclein peptide; PBS with 0.001% BSA and 0.001% Tween 20; room temperature, 3 h; fit that accounts for antibody not in excess of antigen. Particulars: both partners purified. On the technique in general: Fluorescence polarisation rises when a labelled molecule tumbles more slowly, as on binding a larger partner.

The target of assay [2] is T1, TAMRA-labeled α-synuclein peptide. Put plainly: fluorescence polarisation; alanine scan: single VHH concentrations (44, 133 and 400 nM) with 2 nM TAMRA-labeled α-synuclein peptide; background-subtracted signal of the mutant divided by that of wild type. Particulars: both partners purified.

The term Kd denotes the concentration at which binding is half-saturated. Read a high Kd as lower affinity.

B1: wild-type N2 VHH antibody (VHH)
VHH: QGQLVESGGGSVQAGGSLRLSCAASGIDSSSYCMGWFRQRPGKEREGVARINGLGGVKTAYADSVKDRFTISRDNAENTVYLQMNSLKPEDTAIYYCAAKFSPGYCGGSWSNFGYWGQGTQVTVSS
notes: also called NbSyn2; wild-type N2 variable domain; not shown: His6, C-terminal, kept
The molecule B1 had an equilibrium dissociation constant (Kd) in assay [1] of 57.6 nM.

B2: N2 VHH alanine mutant G53 (VHH)
VHH: B1 VHH with G55A
notes: PDB 2X6M) with the stated change; Kabat numbering
As to B2, the “binding relative to wild type (normalised polarisation signal)” value in assay [2] was more than 50%.

B3: N2 VHH alanine mutant N100g (VHH)
VHH: B1 VHH with N112A
notes: as for B2
B3: the “binding relative to wild type (normalised polarisation signal)” value in assay [2] is more than 50%.

B4: N2 VHH alanine mutant V55 (VHH)
VHH: B1 VHH with V57A
notes: as for B2
On to B4, for which the “binding relative to wild type (normalised polarisation signal)” value in assay [2] was more than 50%.

B5: N2.17 reversion mutant S100d (VHH)
VHH: B1 VHH with L54W, F101S, S111F
notes: as the VHH chain of m4 (N2.17) with T100d reverted to the wild-type S100d; PDB 2X6M); Kabat numbering
In the case of B5, in assay [1], the binding result is “binds”.

B6: N2.12 reversion mutant G53 (VHH)
VHH: B1 VHH with A49G, L54W, V57I, F101S, S109T
notes: as the VHH chain of m3 (N2.12) with R53 reverted to the wild-type G53; PDB 2X6M); Kabat numbering
As for B6, in assay [1], the binding result was “binds”.

B7: N2.17 reversion mutant S100f (VHH)
VHH: B1 VHH with L54W, F101S, S109T
notes: as the VHH chain of m4 (N2.17) with F100f reverted to the wild-type S100f; PDB 2X6M); Kabat numbering; also called reversion mutation S100f
Take B7: in assay [1], the binding result is on record as “binds”.

B8: N2.12 reversion mutant S100d (VHH)
VHH: B1 VHH with A49G, L54W, G55R, V57I, F101S
notes: as the VHH chain of m3 (N2.12) with T100d reverted to the wild-type S100d; PDB 2X6M); Kabat numbering
For the molecule B8, the binding result in assay [1] is “binds”.

B9: N2.12 reversion mutant L52b (VHH)
VHH: B1 VHH with A49G, G55R, V57I, F101S, S109T
notes: as the VHH chain of m3 (N2.12) with W52b reverted to the wild-type L52b; PDB 2X6M); Kabat numbering
In the case of B9, in assay [1], the binding result is listed as “binds”.

B10: N2 VHH alanine mutant S97 (VHH)
VHH: B1 VHH with S102A
notes: as for B2
As for B10, the “binding relative to wild type (normalised polarisation signal)” value in assay [2] is more than 50%.

B11: N2 VHH alanine mutant G99 (VHH)
VHH: B1 VHH with G104A
notes: as for B2
Take B11: the “binding relative to wild type (normalised polarisation signal)” value in assay [2] was more than 50%.

B12: N2 VHH alanine mutant G100b (VHH)
VHH: B1 VHH with G107A
notes: as for B2
As for B12, the “binding relative to wild type (normalised polarisation signal)” value in assay [2] was more than 50%.

B13: N2 VHH alanine mutant L52b (VHH)
VHH: B1 VHH with L54A
notes: as for B2
As to B13, the “binding relative to wild type (normalised polarisation signal)” value in assay [2] is more than 50%.

B14: N2.17 VHH (VHH)
VHH: B1 VHH with L54W, F101S, S109T, S111F
notes: PDB 2X6M) with four CDR mutations; Kabat numbering; Selected from the natural diversity library by yeast display; also called N2.17 variant; not shown: His6, C-terminal, kept
B14: in assay [1], the affinity, expressed as Kd, was 13.2 nM.

B15: N2 VHH alanine mutant G100c (VHH)
VHH: B1 VHH with G108A
notes: as for B2
As to B15, in assay [2], the “binding relative to wild type (normalised polarisation signal)” value was more than 50%.

B16: N2.12 reversion mutant F96 (VHH)
VHH: B1 VHH with A49G, L54W, G55R, V57I, S109T
notes: as the VHH chain of m3 (N2.12) with S96 reverted to the wild-type F96; PDB 2X6M); Kabat numbering; also called reversion mutation (F96)
In the case of B16, in assay [1], the binding result is given as “binds”.

B17: N2.17 reversion mutant L52b (VHH)
VHH: B1 VHH with F101S, S109T, S111F
notes: as the VHH chain of m4 (N2.17) with W52b reverted to the wild-type L52b; PDB 2X6M); Kabat numbering
B17: the binding result in assay [1] was “binds”.

B18: N2.12 VHH (VHH)
VHH: B1 VHH with A49G, L54W, G55R, V57I, F101S, S109T
notes: PDB 2X6M) with six CDR mutations; Kabat numbering; Selected from the natural diversity library by yeast display; also called N2.12 variant; not shown: His6, C-terminal, kept
In assay [1], B18 registered a Kd of 7.6 nM. That is a single-digit nanomolar value.

B19: N2.16 VHH (VHH)
VHH: B1 VHH with A49G, L54W, G55S, F101S, S109T, S111Y
notes: PDB 2X6M) with mutations in CDR2 and CDR3; One of the 17 unique variants of the enriched library
B19: in assay [1], the binding result was “binds”.

B20: N2.5 VHH (VHH)
VHH: B1 VHH with G55S, F101S, S109T, S111F, N112S
notes: PDB 2X6M) with mutations in CDR2 and CDR3; One of the 17 unique variants of the enriched library (1-6 mutations in CDR2 and CDR3)
In the case of B20, the binding result in assay [1] is on record as “binds”.

B21: N2.12 reversion mutant A49 (VHH)
VHH: B1 VHH with L54W, G55R, V57I, F101S, S109T
notes: as the VHH chain of m3 (N2.12) with G49 reverted to the wild-type A49; PDB 2X6M); Kabat numbering; also called N2.12 with A49
Take B21: the “fold affinity enhancement relative to wild type” value in assay [1] is more than 7 fold.

B22: N2 VHH alanine mutant S100f (VHH)
VHH: B1 VHH with S111A
notes: as for B2
For the molecule B22, the “binding relative to wild type (normalised polarisation signal)” value in assay [2] is more than 50%.

B23: N2 VHH alanine mutant S100d (VHH)
VHH: B1 VHH with S109A
notes: as for B2
In the case of B23, the “binding relative to wild type (normalised polarisation signal)” value in assay [2] was more than 50%.

B24: N2 VHH alanine mutant F96 (VHH)
VHH: B1 VHH with F101A
notes: as for B2
As to B24, the “binding relative to wild type (normalised polarisation signal)” value in assay [2] was more than 50%.

B25: N2.17 reversion mutant F96 (VHH)
VHH: B1 VHH with L54W, S109T, S111F
notes: as the VHH chain of m4 (N2.17) with S96 reverted to the wild-type F96; PDB 2X6M); Kabat numbering
Take B25: the binding result in assay [1] is “binds”.
